US20180282401A1 (AXON NEUROSCIENCE, published 2018)

T1: 256-285/4R
T1 peptide: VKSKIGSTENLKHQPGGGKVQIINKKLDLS

T2: 264-293/3R
T2 peptide: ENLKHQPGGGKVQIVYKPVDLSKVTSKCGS

T3: 282-311/4R
T3 peptide: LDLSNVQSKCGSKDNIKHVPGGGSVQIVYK

T4: 256-285/3R (not fully specified)
T4 peptide: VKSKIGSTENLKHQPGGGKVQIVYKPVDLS

T5: 264-293/4R
T5 peptide: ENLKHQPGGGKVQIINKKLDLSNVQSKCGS

T6: 259-288/4R
T6 peptide: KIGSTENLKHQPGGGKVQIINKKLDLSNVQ

T7: 259-288/3R (not fully specified)
T7 peptide: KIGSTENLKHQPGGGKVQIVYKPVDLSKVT

T8: 281-305/4R
T8 peptide: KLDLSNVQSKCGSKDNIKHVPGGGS

T9: 314-342/R4
T9 peptide: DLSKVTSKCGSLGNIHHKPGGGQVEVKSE

T10: 291-320/4R
T10 peptide: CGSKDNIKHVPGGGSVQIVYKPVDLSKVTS

B1: monoclonal antibody DC8E8 (antibody, V domains shown)
VH: QVQLQQSGPELVKPGTSVKMPCKASGYIFTDYVISWVKQRTGQGLEWIGEIFPRSGSTYYNEKFKGKATLTADKSSNTAYMQLSSVTSEDSAVYFCARDYYGTSFAMDYWGQGTSVTVSS
VL: DIVMSQSPSSLAVSAGEKVTMSCKSSQSLLNSRTRKNYLAWYQQKPGQSPKLLIYWASTRESGVPDRFTGSGSGTDFTLTISSVQAEDLAVYYCKQSFYLRTFGGGTKLDIK
notes: also called mAb DC8E8; antibody of hybridoma ATCC PTA-11994
B2: recombinant scFv fragment of monoclonal antibody DC8E8 (scDC8E8v) (scFv, V domains shown)
VH: B1 VH
VL: B1 VL

What was measured:
275-304/4R = assay: ELISA, synthetic peptide coated (5 µg/ml), DC8E8 hybridoma culture supernate, anti-mouse Ig-HRP, absorbance 492 nm
256-285/4R = molecular target: T1, 256-285/4R; assay: as above
264-293/3R = molecular target: T2, 264-293/3R; assay: as above
282-311/4R = molecular target: T3, 282-311/4R; assay: as above
256-285/3R = molecular target: T4, 256-285/3R; assay: as above
264-293/4R = molecular target: T5, 264-293/4R; assay: as above
259-288/4R = molecular target: T6, 259-288/4R; assay: as above
259-288/3R = molecular target: T7, 259-288/3R; assay: as above
281-305/4R = molecular target: T8, 281-305/4R; assay: as above
314-342/R4 = molecular target: T9, 314-342/R4; assay: as above
291-320/4R = molecular target: T10, 291-320/4R; assay: as above
tauΔ(1-150;392-441)/4R [1] = molecular target: T11, tauΔ(1-150;392-441)/4R (human, UniProt P10636 468-708); assay: SPR (BIACORE3000, CM5), DC8E8 captured by anti-mouse antibody, tau protein injected, 25 °C, PBS-P, two-phase reaction model
T11 construct: Recombinant truncated human tau, numbered on 2N4R; also the transgene of SHR72 rats; also called misdisordered tau; pathological tau

human tau isoform 2N4R [2] = molecular target: T12, human tau isoform 2N4R (human, UniProt P10636 1-758); assay: as above
T12 construct: also called tau 2N4R; tau441

tauΔ(1-150;392-441)/4R [3] = molecular target: T11, tauΔ(1-150;392-441)/4R; assay: as above; remark: listed apart in the source
human tau isoform 2N4R [4] = molecular target: T12, human tau isoform 2N4R; assay: as above; remark: listed apart in the source
human tau isoform 2N3R [5] = molecular target: T13, human tau isoform 2N3R (human, UniProt P10636 2-758); assay: as above
T13 construct: also called tau 2N3R; tau39

tauΔ(1-150;392-441)/3R [6] = molecular target: T14, tauΔ(1-150;392-441)/3R (human, UniProt P10636 468-708); assay: as above
T14 construct: Also the transgene of SHR24 rats; also called misdisordered three repeat tau; tau type IIB (151-391/R3)

human tau isoform 2N3R [7] = molecular target: T13, human tau isoform 2N3R; assay: as above; remark: listed apart in the source
tauΔ(1-150;392-441)/3R [8] = molecular target: T14, tauΔ(1-150;392-441)/3R; assay: as above; remark: listed apart in the source
[9] = molecular target: B1; assay: competition ELISA: peptide pre-incubated with DC8E8 (1 µg/ml), then on plates coated with the competitor tauΔ(1-150;392-441)/4R; peptide series 1.25-160 µM in paragraph 380, the concentration of the bars is not given
tauΔ(1-150;392-441)/4R [10] = molecular target: T11, tauΔ(1-150;392-441)/4R; assay: SPR (Biacore 3000, CM5), His-tagged scDC8E8v captured by anti-His antibody (60 RU), tau protein injected at 100 µl/min, 25 °C, 1:1 model
human tau isoform 2N4R [11] = molecular target: T12, human tau isoform 2N4R; assay: as above
[12] = molecular target: B1; assay: competition ELISA: peptide pre-incubated with DC8E8, binding to plate-coated tauΔ(1-150;392-441)4R measured

T11 sequence (P10636 other isoform, or with tags, fused parts or gaps mutant limits assumed): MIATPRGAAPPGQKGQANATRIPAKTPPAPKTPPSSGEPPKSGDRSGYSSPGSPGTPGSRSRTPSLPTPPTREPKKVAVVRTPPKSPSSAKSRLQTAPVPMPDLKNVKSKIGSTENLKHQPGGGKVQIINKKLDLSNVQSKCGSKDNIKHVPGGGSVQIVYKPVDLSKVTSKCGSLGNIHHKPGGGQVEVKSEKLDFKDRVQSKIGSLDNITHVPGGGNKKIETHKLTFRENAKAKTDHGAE
T14 sequence (P10636 other isoform, or with tags, fused parts or gaps mutant): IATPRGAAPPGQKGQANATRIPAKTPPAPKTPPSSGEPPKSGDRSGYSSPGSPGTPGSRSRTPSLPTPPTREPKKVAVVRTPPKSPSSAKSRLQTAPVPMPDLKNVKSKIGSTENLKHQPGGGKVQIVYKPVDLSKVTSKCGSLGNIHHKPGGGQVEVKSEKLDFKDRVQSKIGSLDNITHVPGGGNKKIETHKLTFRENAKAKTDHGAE
T13 sequence (P10636 other isoform, or with tags, fused parts or gaps limits assumed): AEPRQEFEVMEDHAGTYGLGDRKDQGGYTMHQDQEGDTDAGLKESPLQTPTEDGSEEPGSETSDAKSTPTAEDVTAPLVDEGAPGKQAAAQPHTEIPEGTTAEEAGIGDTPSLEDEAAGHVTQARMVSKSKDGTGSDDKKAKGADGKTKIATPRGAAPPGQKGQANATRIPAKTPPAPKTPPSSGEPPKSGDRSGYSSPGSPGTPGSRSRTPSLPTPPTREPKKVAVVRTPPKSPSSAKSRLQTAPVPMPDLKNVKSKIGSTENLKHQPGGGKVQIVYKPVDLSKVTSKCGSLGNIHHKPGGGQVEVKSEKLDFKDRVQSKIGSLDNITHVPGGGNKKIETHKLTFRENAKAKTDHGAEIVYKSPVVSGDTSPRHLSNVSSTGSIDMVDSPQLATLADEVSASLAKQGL
T12 sequence (P10636 other isoform, or with tags, fused parts or gaps limits assumed): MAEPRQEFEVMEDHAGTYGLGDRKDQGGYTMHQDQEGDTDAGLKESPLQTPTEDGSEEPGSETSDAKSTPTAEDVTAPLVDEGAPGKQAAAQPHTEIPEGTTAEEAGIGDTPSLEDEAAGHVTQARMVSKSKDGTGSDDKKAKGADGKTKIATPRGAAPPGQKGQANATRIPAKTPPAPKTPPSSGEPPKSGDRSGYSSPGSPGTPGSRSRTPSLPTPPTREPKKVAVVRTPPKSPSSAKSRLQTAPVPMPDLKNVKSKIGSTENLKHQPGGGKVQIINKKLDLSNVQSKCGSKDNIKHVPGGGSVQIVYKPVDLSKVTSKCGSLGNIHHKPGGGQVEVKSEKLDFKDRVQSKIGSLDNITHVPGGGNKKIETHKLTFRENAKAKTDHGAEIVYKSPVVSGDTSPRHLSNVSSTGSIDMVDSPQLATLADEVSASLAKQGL

B1: binds (275-304/4R); binds (256-285/4R); binds (264-293/3R). B1: binds (282-311/4R); binds (256-285/3R); binds (264-293/4R). B1: binds (259-288/4R); binds (259-288/3R); binds (281-305/4R). The binding result (314-342/R4) was “binds”, the binding result (291-320/4R) was “binds” and the Ka (tauΔ(1-150;392-441)/4R [1]) was 7.3e+07 M⁻¹. For the same binder, the Ka (human tau isoform 2N4R [2]) was 1.1e+07 M⁻¹, the koff (tauΔ(1-150;392-441)/4R [3]) was 0.04 s⁻¹ and the kon (tauΔ(1-150;392-441)/4R [3]) was 2.6e+06 M⁻¹ s⁻¹. The koff (human tau isoform 2N4R [4]) was 0.04 s⁻¹, the kon (human tau isoform 2N4R [4]) was 460000 M⁻¹ s⁻¹ and the koff (human tau isoform 2N3R [5]) was 0.5 s⁻¹. For the same binder, the kon (human tau isoform 2N3R [5]) was 140000 M⁻¹ s⁻¹, the koff (tauΔ(1-150;392-441)/3R [6]) was 0.5 s⁻¹ and the kon (tauΔ(1-150;392-441)/3R [6]) was 490000 M⁻¹ s⁻¹. The Ka (human tau isoform 2N3R [7]) was 290000 M⁻¹ and the Ka (tauΔ(1-150;392-441)/3R [8]) was 1.1e+06 M⁻¹.

DNIKHVPGGGS (check the listing) [tau peptide 295-DNIKHVPGGGS-305 (SEQ ID NO: 171)]: binds [9].

For B2, the Ka (tauΔ(1-150;392-441)/4R [10]) was 8.1e+06 M⁻¹, the koff (tauΔ(1-150;392-441)/4R [10]) was 0.02 s⁻¹ and the kon (tauΔ(1-150;392-441)/4R [10]) was 180000 M⁻¹ s⁻¹. It also gave a Ka (human tau isoform 2N4R [11]) of 270000 M⁻¹, a koff (human tau isoform 2N4R [11]) of 0.2 s⁻¹ and a kon (human tau isoform 2N4R [11]) of 57000 M⁻¹ s⁻¹.

With GWSIHSPGGGSC (Designed peptide keeping HxPGGG) [designer therapeutic epitope 1 GWSIHSPGGGSC (SEQ ID NO: 250)] the “IC50 (read off the curve)” value [12] was 2000 to 3000 nM.

For SVFQHLPGGGSC (Designed peptide keeping HxPGGG) [designer therapeutic epitope 2 SVFQHLPGGGSC (SEQ ID NO: 251)], the “IC50 (read off the curve)” value [12] was roughly 30 nM.
